The supplement of paper PMC10126150
± gives the standard deviation of the averaged measurements.

tested on: ATP; assay: switch fluorescence ratio, 500 uM ATP over buffer (Cy3 cluster intensity, sum of 5 cycles each) (fold (ratio)); higher = stronger signal-on switching upon ATP binding; sequences stand for … in TCGTCGGCAGCGTCAGATGTGTATAAGAGACAGTTTTTTTTTTTTTTTTTTTTTTTTT…TC; details: aptamer strand: ATP DNA aptamer (quencher-CACCTGGGGGAGTATTGCGGAGGAAGG + anchor), 100 nM annealed; ATP concentration: 500 uM
Procedure, shortened: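 Switching-strand clusters labelled with Cy3 on a modified Illumina MiSeq flow-cell were annealed to 100 nM quencher-labelled ATP aptamer, imaged in selection buffer, and re-imaged after 15 min with 500 uM ATP at 22 °C. This was done over five cycles with NaOH stripping and re-annealing in between. The fluorescence ratio is summed target-cycle over summed buffer-cycle Cy3 intensity per cluster, averaged per switch-domain sequence, excluding clusters outside 100-1000 RFU.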
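Note: ATP exposure 15 min at 22 °C before imaging.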

In order of falling switch fluorescence ratio:
1. GGCGATACTA  1.92 ± 0.11
2. GGCCCGGGGT  1.44 ± 0.37
3. GGGAGAATTT  1.29 ± 0.43
4. GGCCGGGGGT  1.25 ± 0.4
5. GGCAATATGT  1.24 ± 0.077
6. GGCTAGGTGC  1.24 ± 0.058
7. GGGATCCAGG  1.23 ± 0.087
8. GGCTCCGGTT  1.19 ± 0.084
9. GGCCGGGGTG  1.18 ± 0.032
10. GGCAGGAGGG  1.11 ± 0.22
11. GGCCTCGTAC  1.1 ± 0.02
12. GGCGCAGGAG  1.092 ± 0.0082
13. GGGACGTTAG  1.09 ± 0.034
14. GGCAAAGGAC  1.08 ± 0.027
15. GGCAGCAAGG  1.084 ± 0.0029
16. GGCGGAGAGG  1.08 ± 0.022
17. GGCTGCATGC  1.08 ± 0.023
18. GGCAGGCCAT  1.059 ± 0.0074
19. GGCTAACGAC  1.063 ± 0.0021
20. GGCTCCAACG  1.06 ± 0.013
21. GGCCCTCTGA  1.05 ± 0.018
22. GGCTACGTTT  1.05 ± 0.084
23. GGCAACAGCG  1.039 ± 0.003
24. GGCCACGCTC  1.04 ± 0.043
25. GGCCTATGTC  1.04 ± 0.011
26. GGCGGACAGG  1.038 ± 0.0062
27. GGCTCCGGCG  1.04 ± 0.032
28. GGGAGGTGTT  1.037 ± 0.009
29. GGCAATCCCA  1.03 ± 0.012
30. GGCATAAGGG  1.03 ± 0.05
31. GGCATTGTCT  1.03 ± 0.023
32. GGCCCGTCGG  1.03 ± 0.0047
33. GGGAAAGCGT  1.03 ± 0.035
34. GGGAAAGGAC  1.03 ± 0.032
35. GGGAACCGGA  1.03 ± 0.17
36. GGGACAGCGT  1.03 ± 0.025
37. GGGAGGGACT  1.03 ± 0.051
38. GGATTTAATA  1.02 ± 0.03
39. GGCAATTATG  1.02 ± 0.025
40. GGCACTGGAT  1.02 ± 0.02
41. GGCACTGGGG  1.02 ± 0.02
42. GGCCAATCAG  1.018 ± 0.0024
43. GGCCCCTTTT  1.021 ± 0.0053
44. GGCCGGGGGG  1.02 ± 0.058
45. GGCCTCCTGT  1.02 ± 0.033
46. GGCCTCTGCT  1.02 ± 0.02
47. GGCGAAAGGG  1.02 ± 0.026
48. GGCGAGTTAC  1.021 ± 0.0012
49. GGCGATCGCG  1.02 ± 0.04
50. GGCGCCGCTG  1.016 ± 0.003
51. GGCGCTGAGT  1.017 ± 0.01
52. GGCGGTATAG  1.02 ± 0.013
53. GGCGTCTTTG  1.019 ± 0.0091
54. GGCTAATGGG  1.021 ± 0.0043
55. GGCTAATTTT  1.02 ± 0.011
56. GGCTATGGGT  1.02 ± 0.024
57. GGCTGGGGT  1.02 ± 0.034
58. GGCTTAGGGC  1.02 ± 0.027
59. GGGAAAAGGC  1.02 ± 0.035
60. GGGAAATCGT  1.02 ± 0.012
61. GGGAAGACTT  1.02 ± 0.087
62. GGGACAGGTA  1.02 ± 0.022
63. GGGAGAAATT  1.02 ± 0.061
64. GGGAGCATTG  1.02 ± 0.037
65. GGGAGGAAAA  1.02 ± 0.016
66. GGGAGGGGCT  1.02 ± 0.068
67. GGGAGTAGAC  1.02 ± 0.045
68. GGGAGTTGGA  1.02 ± 0.024
69. GGATTGCCGA  1.01 ± 0.043
70. GGATTGTTTG  1.009 ± 0.01
71. GGCAGGGGGA  1.01 ± 0.015
72. GGCATAGGGG  1.01 ± 0.026
73. GGCCCGGCAC  1.01 ± 0.013
74. GGCCGGCAAA  1.01 ± 0.037
75. GGCCTCAAAT  1.01 ± 0.037
76. GGCCTGGGAC  1.01 ± 0.027
77. GGCGGGGGTC  1.01 ± 0.029
78. GGCGTAGCTT  1.01 ± 0.051
79. GGCTATAATA  1.01 ± 0.034
80. GGCTCATCA  1.01 ± 0.023
81. GGCTCTGATG  1.01 ± 0.011
82. GGCTTCTTGT  1.01 ± 0.009
83. GGGAAAAAAC  1.013 ± 0.0064
84. GGGAAATAGG  1.01 ± 0.023
85. GGGAAGAGGC  1.01 ± 0.038
86. GGGAATGATC  1.01 ± 0.034
87. GGGAATGTAG  1.01 ± 0.018
88. GGGAGGGGCC  1.01 ± 0.026
89. GGGAGTAGTT  1.01 ± 0.025
90. GGGAGTGGCC  1.01 ± 0.032
91. GGCAACGCGT  1 ± 0.025
92. GGCATTTTTT  1 ± 0.031
93. GGCCCCGGCG  1 ± 0.015
94. GGCCCTAGTA  1 ± 0.059
95. GGCCGACTTG  1 ± 0.043
96. GGCCGCCGTC  1 ± 0.019
97. GGCCTAATAG  1 ± 0.034
98. GGCGAAAGGA  1 ± 0.041
99. GGCGGAGTAT  1 ± 0.017
100. GGCGGCAGGG  1 ± 0.013
101. GGCTAAGGTC  1 ± 0.044
102. GGCTATTGAT  1.004 ± 0.0073
103. GGCTGAACGT  1 ± 0.012
104. GGGAAAGATT  1.005 ± 0.01
105. GGGACCGAAT  1.004 ± 0.0056
106. GGGACCTAAG  1 ± 0.024
107. GGGAGCTCTG  1 ± 0.014
108. GGGAGGGGCG  1 ± 0.023
109. GGGAGGTAAT  1 ± 0.056
110. GGGAGTATTT  1 ± 0.034
111. GGATTTTTAT  0.999 ± 0.028
112. GGCCCTGAGC  0.9991 ± 0.0025
113. GGCGAAGTCG  0.999 ± 0.023
114. GGGAGATTGT  0.999 ± 0.026
115. GGATTTTGTT  0.998 ± 0.031
116. GGCCTAAATA  0.998 ± 0.014
117. GGCGGAGGGG  0.998 ± 0.024
118. GGCGTTTTAG  0.998 ± 0.034
119. GGCATACCGT  0.997 ± 0.0052
120. GGCTAAGGTT  0.997 ± 0.015
121. GGGAGGATGT  0.997 ± 0.022
122. GGGAGTCCCA  0.9973 ± 0.0078
123. GGATTTATAA  0.9961 ± 0.0011
124. GGCGTCAAGG  0.996 ± 0.026
125. GGCTGAAGGG  0.996 ± 0.014
126. GGCTGTGTTA  0.9958 ± 0.0024
127. GGGACAGCAT  0.996 ± 0.029
128. GGCAAATCGG  0.995 ± 0.014
129. GGCGCGTGTC  0.9945 ± 0.009
130. GGCTATTGCG  0.995 ± 0.016
131. GGCGCCGCGG  0.9937 ± 0.0092
132. GGGAGCGCGG  0.994 ± 0.013
133. GGGAGGGGGG  0.994 ± 0.032
134. GGGATATTAG  0.994 ± 0.034
135. GGATTGATTT  0.993 ± 0.038
136. GGCGCTAGCG  0.993 ± 0.068
137. GGCGGGCGCT  0.993 ± 0.032
138. GGCGTTGGGT  0.9929 ± 0.0096
139. GGCTTTTTTC  0.993 ± 0.021
140. GGGAAGGTTA  0.993 ± 0.017
141. GGGACGGCTC  0.993 ± 0.049
142. GGGAGAGTTG  0.993 ± 0.023
143. GGATTTTATC  0.992 ± 0.013
144. GGCAATTTTT  0.992 ± 0.049
145. GGCCTGGGAG  0.992 ± 0.011
146. GGGAAGGTAT  0.992 ± 0.017
147. GGCAGCGGGG  0.991 ± 0.019
148. GGCTGAGCCT  0.991 ± 0.038
149. GGGAGGAAAG  0.991 ± 0.017
150. GGGAAAATAG  0.99 ± 0.012
151. GGGAATAGAG  0.99 ± 0.035
152. GGGACCGGTT  0.99 ± 0.03
153. GGATTTTTGG  0.989 ± 0.036
154. GGCTTAAGCA  0.988 ± 0.025
155. GGCCGCAGGT  0.987 ± 0.023
156. GGCTGGCTGA  0.987 ± 0.045
157. GGATTTTTCA  0.985 ± 0.013
158. GGCAGTTTTT  0.985 ± 0.02
159. GGCCTCGCCT  0.98511 ± 9.3e-05
160. GGCGTAGTTA  0.985 ± 0.018
161. GGGAAAAAGT  0.985 ± 0.027
162. GGGAATTCTG  0.985 ± 0.023
163. GGCATTAAAG  0.9841 ± 0.0078
164. GGGAGAGGCG  0.984 ± 0.013
165. GGATTGGCGG  0.983 ± 0.039
166. GGCGAGGGCT  0.982 ± 0.051
167. GGCTTAGTTG  0.982 ± 0.0024
168. GGCTTTTGGA  0.982 ± 0.014
169. GGGAGAAGCG  0.982 ± 0.014
170. GGCGGTGTGG  0.981 ± 0.023
171. GGCGCCGGAA  0.98 ± 0.031
172. GGGAGGAGTG  0.98 ± 0.029
173. GGGATCATGT  0.98 ± 0.014
174. GGGATGAGTT  0.98 ± 0.041
175. GGCTCAGGGC  0.9793 ± 0.0024
176. GGGAATTGGT  0.979 ± 0.02
177. GGGATATTTT  0.977 ± 0.018
178. GGCTGTGGCG  0.9761 ± 0.0015
179. GGGAGGGTCT  0.975 ± 0.016
180. GGGACTAGAG  0.9744 ± 0.0061
181. GGGAGGTCAT  0.9731 ± 0.0065
182. GGCCTTCGGG  0.972 ± 0.053
183. GGCTGAGGGG  0.972 ± 0.042
184. GGGACATGGG  0.972 ± 0.041
185. GGGATAGAAG  0.971 ± 0.019
186. GGCATCGTCG  0.97 ± 0.025
187. GGCCCCCGGC  0.969 ± 0.026
188. GGCTTATTGG  0.969 ± 0.016
189. GGGAAAATA  0.969 ± 0.018
190. GGGAGGTATA  0.969 ± 0.012
191. GGCTGGGATT  0.964 ± 0.02
192. GGCTGTTTTT  0.962 ± 0.034
193. GGGAGTTCGG  0.9597 ± 0.0092
194. GGCGGGATTG  0.959 ± 0.041
195. GGGACTAGTT  0.959 ± 0.046
196. GGCATCGCCG  0.954 ± 0.013
197. GGATTTAATG  0.9523 ± 0.0057
198. GGCAGGTTGG  0.952 ± 0.014
199. GGGACGGGC  0.933 ± 0.078
200. GGCTGAAAAA  0.915 ± 0.056
